T1: GST-SUV39H1 ΔSET (human, UniProt O43463 1-249)
T1 construct: human SUV39H1 that lost the SET domain and the C-terminal cysteine-rich region but keeps the SET-associated Cys-rich (SAC) domain; the text states no limits; source: bacterially expressed (pGEX5X-3), purified (Glutathione Sepharose 4B)
T1 sequence (looked up): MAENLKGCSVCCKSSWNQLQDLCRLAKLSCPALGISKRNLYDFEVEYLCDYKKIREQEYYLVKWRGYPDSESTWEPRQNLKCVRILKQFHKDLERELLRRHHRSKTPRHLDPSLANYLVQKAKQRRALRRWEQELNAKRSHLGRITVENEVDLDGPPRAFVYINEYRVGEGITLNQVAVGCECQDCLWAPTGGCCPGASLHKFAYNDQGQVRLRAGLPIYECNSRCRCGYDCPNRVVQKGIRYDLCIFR

T2: GST-SUV39H1 Nchromo (human, UniProt O43463 1-118)
T2 construct: human SUV39H1, C-terminal deletion up to amino acid 118 (SAC domain lost); source: bacterially expressed (pGEX5X-3), purified (Glutathione Sepharose 4B)
T2 sequence (looked up): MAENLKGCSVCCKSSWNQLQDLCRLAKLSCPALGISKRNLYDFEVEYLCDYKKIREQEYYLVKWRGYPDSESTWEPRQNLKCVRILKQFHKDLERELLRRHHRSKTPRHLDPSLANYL

T3: bacterially expressed GST-SUV39H1, wild type (human, UniProt O43463 1-412)
T3 construct: human SUV39H1, wild type; cDNA amplified from the start to the stop codon (SUV39H1-F1, SUV39H1-R1); the text counts the protein to amino acid 412; also called SUV39H1-WT; GST-fusion SUV39H1; source: bacterially expressed (pGEX5X-3), purified (Glutathione Sepharose 4B)
T3 sequence (looked up): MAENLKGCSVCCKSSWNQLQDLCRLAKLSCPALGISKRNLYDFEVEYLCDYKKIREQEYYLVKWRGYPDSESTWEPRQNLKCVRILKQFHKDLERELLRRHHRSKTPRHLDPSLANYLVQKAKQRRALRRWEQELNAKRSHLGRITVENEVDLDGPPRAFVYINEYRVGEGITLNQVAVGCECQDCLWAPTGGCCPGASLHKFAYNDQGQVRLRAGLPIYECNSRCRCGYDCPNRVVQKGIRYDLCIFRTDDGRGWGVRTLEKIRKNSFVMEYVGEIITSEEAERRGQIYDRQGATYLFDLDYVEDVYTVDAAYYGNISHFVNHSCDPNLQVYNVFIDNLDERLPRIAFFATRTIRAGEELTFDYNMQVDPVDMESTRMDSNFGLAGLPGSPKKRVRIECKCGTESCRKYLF


Experiments:
GST-SUV39H1 ΔSET = molecular target: T1, GST-SUV39H1 ΔSET; assay: pull-down; wild type or mutant GST-SUV39H1 or GST (2 ug) bound to Glutathione-Sepharose 4B, mixed with His-tagged Tax (2 ug) in cold PBS, 4°C, one hour; immunoblot with Lt-4; band intensities by NIH Image; conditions: both partners purified
GST-SUV39H1 Nchromo = molecular target: T2, GST-SUV39H1 Nchromo; assay: as above; conditions: both partners purified
[1] = molecular target: T3, bacterially expressed GST-SUV39H1, wild …; assay: pull-down; GST-SUV39H1 bound to Glutathione-Sepharose 4B, mixed with in vitro translated 35S-labeled Tax proteins (one fourth of the reaction mixture); autoradiography, signals by BAS2000; conditions: one partner purified

Binder | band intensity relative to the wild type (GST-SUV39H1 ΔSET) | band intensity relative to the wild type (GST-SUV39H1 Nchromo) | radioactivity relative to the wild type Tax [1]
histidine-tagged wild type Tax (His-Tax) (natural protein, Tax protein of HTLV-1, wild type; also called His-tagged Tax protein; source: bacterially expressed (pET3d/Tax), purified (ProBond Resin)) not shown | < 0.5 of the band intensity of the wild type | ~0.1 of the band intensity of the wild type | 
in vitro translated TaxN180 (domain or fragment, labeled with 35S-methionine, HTLV-1 Tax with a C-terminal deletion up to 180 amino acids; source: in vitro translated (TNT QuickCoupled Transcription/Translation Systems, Promega)) not shown |  |  | ~0.5 of the radioactivity of the wild type Tax

Source: paper PMC1363732, “SUV39H1 interacts with HTLV-1 Tax and abrogates Tax transactivation of HTLV-1 LTR” (Retrovirology, 2006)
